Measured values: paper PMC3056899
Read-outs that look alike come from different tables or passages of the source.

What was measured:
[1] = target: T1, CFIm25 delN21 (crystal);CFIm68 N13-235 (crystal) (human;human, UniProt O43809;Q16630 21-227;13-235, |); test: X-ray crystallography
CFIm25;CFIm68 RRM = CFIm25;CFIm68 RRM (human;human, UniProt O43809;Q16630 1-227;13-235, |); test: EMSA
CFIm25 = CFIm25 (human, UniProt O43809 1-227); test: EMSA
[2] = target: T1, CFIm25 delN21 (crystal);CFIm68 N13-235 …; test: X-ray crystallography; remark: listed apart in the source

T1 sequence (O43809 21-227, chain 1 of 2): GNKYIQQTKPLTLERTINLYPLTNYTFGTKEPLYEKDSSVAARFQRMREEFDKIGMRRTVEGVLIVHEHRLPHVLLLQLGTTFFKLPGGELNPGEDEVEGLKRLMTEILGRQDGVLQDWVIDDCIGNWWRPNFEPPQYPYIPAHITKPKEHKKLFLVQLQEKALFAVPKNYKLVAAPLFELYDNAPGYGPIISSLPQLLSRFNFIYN
T1 sequence (Q16630 13-235, chain 2 of 2): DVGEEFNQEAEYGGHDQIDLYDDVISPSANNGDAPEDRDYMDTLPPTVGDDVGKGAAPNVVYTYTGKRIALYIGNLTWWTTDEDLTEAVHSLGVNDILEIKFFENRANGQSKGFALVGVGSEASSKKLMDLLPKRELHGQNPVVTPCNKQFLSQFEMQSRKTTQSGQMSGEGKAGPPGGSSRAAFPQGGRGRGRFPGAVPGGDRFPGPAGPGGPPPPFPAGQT
Sequence of CFIm25 (O43809 whole entry): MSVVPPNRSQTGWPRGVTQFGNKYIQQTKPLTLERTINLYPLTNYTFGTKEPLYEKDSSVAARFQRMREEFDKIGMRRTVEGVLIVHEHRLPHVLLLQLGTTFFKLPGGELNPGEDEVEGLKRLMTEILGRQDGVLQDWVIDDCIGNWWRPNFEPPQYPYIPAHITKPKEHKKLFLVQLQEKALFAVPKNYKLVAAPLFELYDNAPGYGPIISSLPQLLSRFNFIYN
Sequence of CFIm25;CFIm68 RRM (O43809 whole entry, chain 1 of 2): as the sequence (O43809 whole entry) above
Sequence of CFIm25;CFIm68 RRM (Q16630 13-235, chain 2 of 2): as the sequence (Q16630 13-235, chain 2 of 2) above

UUGUAU (ssRNA) [6-mer RNA]: binds [1].

With GGGUGUAAAACAGAUGAUGUAU (ssRNA) [PAPOLA upstream element as printed] the Kd (CFIm25;CFIm68 RRM) was 222 nM and the Kd (CFIm25) was 645 nM.

UAUUUUGUA (ssRNA) [9-mer RNA]: binds [2].
